Target: dtx_drome dx (UniProt Q23985)
Sequence (Q23985 whole entry): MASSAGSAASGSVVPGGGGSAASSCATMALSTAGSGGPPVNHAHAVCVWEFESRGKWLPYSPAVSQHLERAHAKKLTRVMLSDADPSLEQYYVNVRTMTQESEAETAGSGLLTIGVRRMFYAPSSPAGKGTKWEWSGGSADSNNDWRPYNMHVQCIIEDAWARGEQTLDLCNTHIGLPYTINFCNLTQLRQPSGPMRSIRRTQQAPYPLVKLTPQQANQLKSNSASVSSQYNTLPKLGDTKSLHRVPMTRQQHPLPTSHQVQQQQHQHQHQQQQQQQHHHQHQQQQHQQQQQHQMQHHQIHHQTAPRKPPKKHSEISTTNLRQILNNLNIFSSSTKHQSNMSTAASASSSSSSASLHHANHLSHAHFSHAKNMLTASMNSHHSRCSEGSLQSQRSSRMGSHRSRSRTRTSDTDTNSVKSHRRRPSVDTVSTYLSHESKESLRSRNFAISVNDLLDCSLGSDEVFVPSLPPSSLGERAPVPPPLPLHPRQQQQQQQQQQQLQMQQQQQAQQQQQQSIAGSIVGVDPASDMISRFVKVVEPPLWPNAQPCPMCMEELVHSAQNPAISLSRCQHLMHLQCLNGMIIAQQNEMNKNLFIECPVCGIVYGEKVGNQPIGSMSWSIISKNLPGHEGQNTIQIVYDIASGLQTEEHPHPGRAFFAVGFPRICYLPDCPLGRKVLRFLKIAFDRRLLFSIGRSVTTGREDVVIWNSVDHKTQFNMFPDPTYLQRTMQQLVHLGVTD

effect of a mutation on the interaction: disrupting interaction strength
Substance: Neurogenic locus Notch protein (Drosophila melanogaster (Fruit fly)), P07207 R2027A

Source: IntAct's records for PubMed 24855951
